Tests used:
[1] = target: PD-1 on in vitro activated primary human T cells (human) (UniProt Q15116); test: flow cytometry, detection antibody on Ki-67+ CD4+ activated T cells after 4 d with 1 nM RV1 precomplexed with IL-15
[2] = target: PD-1 on in vitro activated primary human T cells (human) (UniProt Q15116); test: flow cytometry, detection antibody on Ki-67+ CD8+ activated T cells after 4 d with 1 nM RV1 precomplexed with IL-15
[3] = target: PD-1 on in vitro activated primary human T cells (human) (UniProt Q15116); test: flow cytometry, detection antibody on Ki-67+ CD4+ activated T cells after 4 d with 10 nM IL-15Rα-Fc precomplexed with IL-15
[4] = target: PD-1 on in vitro activated primary human T cells (human) (UniProt Q15116); test: flow cytometry, detection antibody on Ki-67+ CD4+ activated T cells after 4 d with 100 nM IL-15Rα-Fc precomplexed with IL-15
[5] = target: PD-1 on in vitro activated primary human T cells (human) (UniProt Q15116); test: flow cytometry, detection antibody on Ki-67+ CD4+ activated T cells after 4 d with 1 nM IL-15 alone
[6] = target: PD-1 on in vitro activated primary human T cells (human) (UniProt Q15116); test: flow cytometry, detection antibody on Ki-67+ CD8+ activated T cells after 4 d with 1 nM RV2 precomplexed with IL-15
[7] = target: PD-1 on in vitro activated primary human T cells (human) (UniProt Q15116); test: flow cytometry, residual staining by detection antibody on Ki-67+ CD8+ activated T cells in the presence of competitors RV29 and RV32 (IL-15 precomplexed); average pooled over both constructs and 100, 10 and 1 nM
[8] = target: PD-1 on in vitro activated primary human T cells (human) (UniProt Q15116); test: flow cytometry, detection antibody on Ki-67+ CD8+ activated T cells after 4 d with 100 nM IL-15 alone
[9] = target: PD-1 on in vitro activated primary human T cells (human) (UniProt Q15116); test: flow cytometry, detection antibody on Ki-67+ CD8+ activated T cells after 4 d with 10 nM IL-15Rα-Fc precomplexed with IL-15
[10] = target: PD-1 on in vitro activated primary human T cells (human) (UniProt Q15116); test: flow cytometry, detection antibody on Ki-67+ CD4+ activated T cells after 4 d with 100 nM RV2 precomplexed with IL-15
[11] = target: PD-1 on in vitro activated primary human T cells (human) (UniProt Q15116); test: flow cytometry, detection antibody on Ki-67+ CD8+ activated T cells after 4 d with 10 nM RV2 precomplexed with IL-15
[12] = target: PD-1 on in vitro activated primary human T cells (human) (UniProt Q15116); test: flow cytometry, detection antibody on Ki-67+ CD4+ activated T cells after 4 d with 100 nM RV1 precomplexed with IL-15
[13] = target: PD-1 on in vitro activated primary human T cells (human) (UniProt Q15116); test: flow cytometry, detection antibody on Ki-67+ CD8+ activated T cells after 4 d with 10 nM IL-15 alone
[14] = target: PD-1 on in vitro activated primary human T cells (human) (UniProt Q15116); test: flow cytometry, detection antibody on Ki-67+ CD8+ activated T cells; average pooled over non-PD-1-binding test samples and concentrations
[15] = target: PD-1 on in vitro activated primary human T cells (human) (UniProt Q15116); test: flow cytometry, residual staining by detection antibody on Ki-67+ CD4+ activated T cells in the presence of competitors RV29 and RV32 (IL-15 precomplexed); average pooled over both constructs and 100, 10 and 1 nM
[16] = target: PD-1 on in vitro activated primary human T cells (human) (UniProt Q15116); test: flow cytometry, detection antibody on Ki-67+ CD4+ activated T cells after 4 d with 1 nM IL-15Rα-Fc precomplexed with IL-15
[17] = target: PD-1 on in vitro activated primary human T cells (human) (UniProt Q15116); test: flow cytometry, detection antibody on Ki-67+ CD8+ activated T cells after 4 d with 100 nM IL-15Rα-Fc precomplexed with IL-15
[18] = target: PD-1 on in vitro activated primary human T cells (human) (UniProt Q15116); test: flow cytometry, detection antibody on Ki-67+ CD4+ activated T cells after 4 d with 100 nM IL-15 alone
[19] = target: PD-1 on in vitro activated primary human T cells (human) (UniProt Q15116); test: flow cytometry, detection antibody on Ki-67+ CD4+ activated T cells after 4 d with 1 nM RV2 precomplexed with IL-15
[20] = target: PD-1 on in vitro activated primary human T cells (human) (UniProt Q15116); test: flow cytometry, detection antibody on Ki-67+ CD8+ activated T cells, media only
[21] = target: PD-1 on in vitro activated primary human T cells (human) (UniProt Q15116); test: flow cytometry, detection antibody on Ki-67+ CD4+ activated T cells after 4 d with 10 nM RV1 precomplexed with IL-15
[22] = target: PD-1 on in vitro activated primary human T cells (human) (UniProt Q15116); test: flow cytometry, detection antibody on Ki-67+ CD8+ activated T cells after 4 d with 100 nM RV2 precomplexed with IL-15
[23] = target: PD-1 on in vitro activated primary human T cells (human) (UniProt Q15116); test: flow cytometry, detection antibody on Ki-67+ CD8+ activated T cells after 4 d with 1 nM IL-15Rα-Fc precomplexed with IL-15
[24] = target: PD-1 on in vitro activated primary human T cells (human) (UniProt Q15116); test: flow cytometry, detection antibody on Ki-67+ CD4+ activated T cells; average pooled over non-PD-1-binding test samples and concentrations
[25] = target: PD-1 on in vitro activated primary human T cells (human) (UniProt Q15116); test: flow cytometry, detection antibody on Ki-67+ CD4+ activated T cells after 4 d with 10 nM IL-15 alone
[26] = target: PD-1 on in vitro activated primary human T cells (human) (UniProt Q15116); test: flow cytometry, detection antibody on Ki-67+ CD4+ activated T cells, media only
[27] = target: PD-1 on in vitro activated primary human T cells (human) (UniProt Q15116); test: flow cytometry, detection antibody on Ki-67+ CD4+ activated T cells after 4 d with 10 nM RV2 precomplexed with IL-15
[28] = target: PD-1 on in vitro activated primary human T cells (human) (UniProt Q15116); test: flow cytometry, detection antibody on Ki-67+ CD8+ activated T cells after 4 d with 100 nM RV1 precomplexed with IL-15
[29] = target: PD-1 on in vitro activated primary human T cells (human) (UniProt Q15116); test: flow cytometry, detection antibody on Ki-67+ CD8+ activated T cells after 4 d with 10 nM RV1 precomplexed with IL-15
[30] = target: PD-1 on in vitro activated primary human T cells (human) (UniProt Q15116); test: flow cytometry, detection antibody on Ki-67+ CD8+ activated T cells after 4 d with 1 nM IL-15 alone

Chain of PD-1 on in vitro activated primary human T cells (human) (Q15116 25-288): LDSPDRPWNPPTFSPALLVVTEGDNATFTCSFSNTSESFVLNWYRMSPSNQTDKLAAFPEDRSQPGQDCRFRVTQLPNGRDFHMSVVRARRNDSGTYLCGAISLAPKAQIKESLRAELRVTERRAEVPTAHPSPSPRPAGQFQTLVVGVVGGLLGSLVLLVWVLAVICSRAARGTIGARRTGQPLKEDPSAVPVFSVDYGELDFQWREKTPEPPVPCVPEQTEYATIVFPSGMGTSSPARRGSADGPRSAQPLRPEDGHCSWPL

“PD-1 detection antibody (clone EH12.21H7)” showed an MFI of PD-1 staining [1] of 4100 MFI, an MFI of PD-1 staining [2] of 1870 MFI and an MFI of PD-1 staining [3] of 4480 MFI. For the same substance, the MFI of PD-1 staining [4] was 4380 MFI, the MFI of PD-1 staining [5] was 4870 MFI and the MFI of PD-1 staining [6] was 1920 MFI. The MFI of PD-1 staining (average) [7] was 1460 MFI, the MFI of PD-1 staining [8] was 3220 MFI and the MFI of PD-1 staining [9] was 2120 MFI. The MFI of PD-1 staining [10] was 5840 MFI, the MFI of PD-1 staining [11] was 2020 MFI and the MFI of PD-1 staining [12] was 4830 MFI. It also gave an MFI of PD-1 staining [13] of 3190 MFI, an MFI of PD-1 staining (average) [14] of 2190 MFI and an MFI of PD-1 staining (average) [15] of 3090 MFI. For the same substance, the MFI of PD-1 staining [16] was 4280 MFI, the MFI of PD-1 staining [17] was 2110 MFI and the MFI of PD-1 staining [18] was 6550 MFI. For the same substance, the MFI of PD-1 staining [19] was 4200 MFI, the MFI of PD-1 staining [20] was 2250 MFI and the MFI of PD-1 staining [21] was 4620 MFI. It also gave an MFI of PD-1 staining [22] of 2820 MFI, an MFI of PD-1 staining [23] of 1690 MFI and an MFI of PD-1 staining (average) [24] of 4830 MFI. For the same substance, the MFI of PD-1 staining [25] was 6440 MFI, the MFI of PD-1 staining [26] was 4020 MFI and the MFI of PD-1 staining [27] was 5070 MFI. The MFI of PD-1 staining [28] was 2370 MFI, the MFI of PD-1 staining [29] was 1890 MFI and the MFI of PD-1 staining [30] was 2050 MFI.
